In general, Km refers to the concentration of substrate that gives half-maximal velocity. One may read the kcat as the maximal rate divided by the concentration of active sites.

This data set concerns CC(=O)Oc1ccc([N+](=O)[O-])cc1. Description: purified protein. The class given is biochemical, Marinobacter sp. The settings on record: PBS pH 7.0, 20 °C, 0.1-2.5 mM substrate.

In the case of Ple628 (Marinobacter sp.), the Km was determined as 1800 µM and the kcat was determined as 4.498 s⁻¹.

Consider Ple629 (Marinobacter sp.), for which the Km is 2100 µM and the kcat came out at 4.742 s⁻¹.

The values are drawn from paper PMC9350882, “Molecular and Biochemical Differences of the Tandem and Cold-Adapted PET Hydrolases Ple628 and Ple629, Isolated From a Marine Microbial Consortium” (Frontiers in Bioengineering and Biotechnology, 2022).
